Results as given in patent publication US20230321241A1, “CANCER PEPTIDE VACCINE AND METHOD OF PREPARING THE SAME” (BrightPath Biotherapeutics Co., Ltd., priority 2020, published 2023).
Where a SMILES comes first, the peptide text is derived from it. Where no end group is shown, it is not given here.

What was measured:
Assay type in all cases: physicochemical
[1] = Test Example 1: examination of peptide solubility in citrate/phosphate buffers; conditions: for result (whether peptide drug substance was dissolved): room temperature 24 hours
Experimental: The solubility of a peptide drug substance (purity 95 w/w % or more, PPL) was examined for the peptides Asn-Val-Leu-His-Phe-Phe-Asn-Ala-Pro-Leu (SEQ ID NO: 1), Ala-Ser-Leu-Asp-Ser-Asp-Pro-Trp-Val (SEQ ID NO: 2), Lys-Leu-Lys-His-Tyr-Gly-Pro-Gly-Trp-Val (SEQ ID NO: 3), and Leu-Leu-Gln-Ala-Glu-Ala-Pro-Arg-Leu (SEQ ID NO: 4), respectively. First, 10 mM citrate buffers (Citrate) or phosphate buffers (Phosphate) containing 270 mM trehalose from pH 3.0 to pH 8.0 were prepared and the peptide drug substance was added to each buffer so as to provide a predetermined peptide concentration. The mixture was stirred and allowed to stand at room temperature for 24 hours to evaluate whether the peptide drug substance was dissolved.

[2] = Test Example 3: peptide stability in solution (HPLC); conditions: for % difference vs T = 0 / Conc.: buffers as Table 3; for T0 Conc.: time of preparation, buffers: SEQ1 pH 3.5 50 mM Gly-HCl + 200 mM trehalose, SEQ2 pH 4.0, SEQ3 pH 7.0, SEQ4 pH 6.0 in 10 mM citrate + 270 mM trehalose
Experimental: Based on the results of Test Example 1 and Test Example 2, the stability of the peptides was examined. First, peptide drug substances (purity 95 w/w % or more, PPL) were dissolved in the buffers shown in Table 3, respectively, to prepare peptide solutions of the peptides of SEQ ID NOs: 1 to 4 at the final concentration of 10 mg/mL. […] In the evaluation, samples were collected at the time of preparation of the peptide solution, after 24 hours, and after 48 hours, and stored at −20° C. The peptide concentration was measured by HPLC after all the samples were collected, and compared with the peptide concentration at the time of preparation (T=0).

[3] = Preparation Example 2: stability of lyophilized peptide cocktail preparation; conditions: T = 1 (1 month at 25° C., humidity 60%)
Experimental: To produce a lyophilized peptide cocktail preparation and confirm the stability of the preparation, 500 mL of a peptide cocktail preparation was prepared in the same manner as in Example 1, and then the preparation was aseptically filled to a glass vial at 1 mL per vial and lyophilized to provide a lyophilized peptide cocktail preparation. Then, immediately after the preparation (T=0) or after storage at room temperature (25° C., humidity 60%) for 1 month from the preparation (T=1), 1 mL of purified water was added to the lyophilized preparation to dissolve the peptides. Appearance, solubility, peptide stability, and pH were evaluated.

[4] = Example 1: peptide cocktail preparation standing at room temperature for 6 hours; conditions: for HPLC analysis: peptide concentration: in peptide cocktail preparation of Example 1 (with GM-CSF); for HPLC analysis: % vs T0: in peptide cocktail preparation of Example 1, T = 6 hours
Experimental: Using the lyophilized peptide preparations produced in Preparation Example 1, a peptide cocktail preparation to be administered was prepared as follows. First, 1 mL of purified water was added to each lyophilized peptide preparation, and the lyophilized product in the vial was dissolved to prepare a peptide solution. All the peptide solutions were collected from the respective vials and transferred to a different vial to provide a peptide cocktail preparation. Also, a GM-CSF lyophilized preparation (product name: Lukine ([…]), Sanofi) was dissolved in 1 mL of purified water and 0.6 mL of the solution thus obtained was added as an adjuvant to 1.4 mL of the peptide cocktail preparation to provide a peptide cocktail preparation to be administered. Then, the peptide cocktail preparation thus obtained was allowed to stand at room temperature for 6 hours, and evaluated for changes in peptide concentration, pH (25° C.), and osmotic pressure compared with those before standing.

[5] = Test Example 2: solubility of SEQ ID NO: 1 in glycine-HCl buffers; conditions: for result (solubility): 270 mM trehalose, 24 hours
Experimental: The solubility of the peptide drug substance of SEQ ID NO: 1 (purity 95 w/w % or more, PPL) was examined as described below. First, 10 to 500 mM glycine-HCl buffers containing 270 mM trehalose from pH 2.5 to 3.5 were prepared, and the peptide drug substance was added to 2 mL of each buffer so that the peptide concentration was 10 to 25 mg/mL.

Row | Compound | % difference vs T = 0 ([2]; T = 24 h, 25° C./60% RH) [%] | Conc. ([2]; T = 24 h, 25° C./60% RH) [µg/mL] | % difference vs T = 0 ([2]; T = 24 h, 40° C./75% RH) [%] | Conc. ([2]; T = 24 h, 40° C./75% RH) [µg/mL] | % difference vs T = 0 ([2]; T = 48 h, 25° C./60% RH) [%] | Conc. ([2]; T = 48 h, 25° C./60% RH) [µg/mL] | % difference vs T = 0 ([2]; T = 48 h, 40° C./75% RH) [%] | Conc. ([2]; T = 48 h, 40° C./75% RH) [µg/mL] | T0 Conc. [2] [mg/mL] | change in peptide amount % vs T = 0 (100%) (HPLC analysis) [3] | HPLC analysis: peptide concentration ([4]; T = 0 hour) | HPLC analysis: peptide concentration ([4]; T = 6 hours, room temperature) [mg/mL] | HPLC analysis: % vs T0 ([4]; room temperature) [%] | other results
1 | LLQAEAPRL [SEQ ID NO: 4] | −1 | 10470 | 1 | 10680 | −4 | 10160 | −1 | 10470 | 10.61 | SEQ ID NO: 4: 101.2% | SEQ ID NO: 4: 2.8 mg/mL | 3.0 | 106.4 | result (whether peptide drug substance was dissolved) ([1]; 10 mM Citrate pH 3.0, 270 mM trehalose, final conc. 20 mg/mL): dissolved; result (whether peptide drug substance was dissolved) ([1]; 10 mM Citrate pH 3.5, 270 mM trehalose, final conc. 20 mg/mL): dissolved; result (whether peptide drug substance was dissolved) ([1]; 10 mM Citrate pH 4.0, 270 mM trehalose, final conc. 28.6 mg/mL): dissolved; result (whether peptide drug substance was dissolved) ([1]; 10 mM Citrate pH 5.0, 270 mM trehalose, final conc. 20 mg/mL): dissolved; result (whether peptide drug substance was dissolved) ([1]; 10 mM Citrate pH 6.0, 270 mM trehalose, final conc. 28.6 mg/mL): dissolved; result (whether peptide drug substance was dissolved) ([1]; 10 mM Phosphate pH 7.0, 270 mM trehalose, final conc. 25 mg/mL): dissolved; result (whether peptide drug substance was dissolved) ([1]; 10 mM Phosphate pH 7.5, 270 mM trehalose, final conc. 25 mg/mL): dissolved; result (whether peptide drug substance was dissolved) ([1]; 10 mM Phosphate pH 8.0, 270 mM trehalose, final conc. 25 mg/mL): dissolved
2 | KLKHYGPGWV [SEQ ID NO: 3] | 2 | 11420 | 4 | 11700 | 4 | 11630 | 4 | 11740 | 11.23 | SEQ ID NO: 3: 104.5% | SEQ ID NO: 3: 2.5 mg/mL | 2.7 | 107.7 | result (whether peptide drug substance was dissolved) ([1]; 10 mM Citrate pH 3.0, 270 mM trehalose, final conc. 200 mg/mL): dissolved; result (whether peptide drug substance was dissolved) ([1]; 10 mM Citrate pH 3.5, 270 mM trehalose, final conc. 200 mg/mL): dissolved; result (whether peptide drug substance was dissolved) ([1]; 10 mM Citrate pH 4.0, 270 mM trehalose, final conc. 200 mg/mL): dissolved; result (whether peptide drug substance was dissolved) ([1]; 10 mM Citrate pH 5.0, 270 mM trehalose, final conc. 200 mg/mL): dissolved; result (whether peptide drug substance was dissolved) ([1]; 10 mM Citrate pH 6.0, 270 mM trehalose, final conc. 200 mg/mL): dissolved; result (whether peptide drug substance was dissolved) ([1]; 10 mM Phosphate pH 7.0, 270 mM trehalose, final conc. 200 mg/mL): dissolved; result (whether peptide drug substance was dissolved) ([1]; 10 mM Phosphate pH 7.5, 270 mM trehalose, final conc. 200 mg/mL): dissolved; result (whether peptide drug substance was dissolved) ([1]; 10 mM Phosphate pH 8.0, 270 mM trehalose, final conc. 200 mg/mL): dissolved
3 | Ala-Ser-Leu-Asp-Ser-Asp-Pro-Trp-Val (ASLDSDPWV) [SEQ ID NO: 2] | 0 | 10850 | −6 | 10240 | −5 | 10370 | −20 | 8760 | 10.89 | SEQ ID NO: 2: 100.4% | SEQ ID NO: 2: 2.7 mg/mL | 2.8 | 107.0 | result (whether peptide drug substance was dissolved) ([1]; 10 mM Citrate pH 3.0, 270 mM trehalose, final conc. 66.67 mg/mL): dissolved; result (whether peptide drug substance was dissolved) ([1]; 10 mM Citrate pH 3.5, 270 mM trehalose, final conc. 66.67 mg/mL): dissolved; result (whether peptide drug substance was dissolved) ([1]; 10 mM Citrate pH 4.0, 270 mM trehalose, final conc. 100 mg/mL): dissolved; result (whether peptide drug substance was dissolved) ([1]; 10 mM Citrate pH 5.0, 270 mM trehalose, final conc. 100 mg/mL): dissolved; result (whether peptide drug substance was dissolved) ([1]; 10 mM Citrate pH 6.0, 270 mM trehalose, final conc. 100 mg/mL): dissolved; result (whether peptide drug substance was dissolved) ([1]; 10 mM Phosphate pH 7.0, 270 mM trehalose, final conc. 100 mg/mL): dissolved; result (whether peptide drug substance was dissolved) ([1]; 10 mM Phosphate pH 7.5, 270 mM trehalose, final conc. 100 mg/mL): dissolved; result (whether peptide drug substance was dissolved) ([1]; 10 mM Phosphate pH 8.0, 270 mM trehalose, final conc. 100 mg/mL): dissolved; degraded ([2]; stored at 75% humidity for 48 hours): 20%
4 | CC(C)C[C@H](NC(=O)[C@@H]1CCCN1C(=O)[C@H](C)NC(=O)[C@H](CC(N)=O)NC(=O)[C@H](Cc1ccccc1)NC(=O)[C@H](Cc1ccccc1)NC(=O)[C@H](Cc1c[nH]cn1)NC(=O)[C@H](CC(C)C)NC(=O)[C@@H](NC(=O)[C@@H](N)CC(N)=O)C(C)C)C(=O)O [SEQ ID NO: 1, Asn-Val-Leu-His-Phe-Phe-Asn-Ala-Pro-Leu] (H-NVLHFFNAPL-OH; N-terminus and C-terminus assumed) |  |  |  |  |  |  |  |  |  |  |  |  |  | solubility (summary of Table 1) ([1]; any of the conditions (pH 3.0 to 8.0), final concentration of 20 mg/mL): could not be dissolved; result (solubility) ([5]; glycine-HCl buffer pH 2.5, glycine 10 mM (0.75 mg/mL), final conc. of peptide 20 mg/mL, mass ratio peptide/glycine 26.67): dissolved; result (solubility) ([5]; glycine-HCl buffer pH 3, glycine 10 mM (0.75 mg/mL), final conc. of peptide 20 mg/mL, mass ratio 26.67): dissolved; result (solubility) ([5]; glycine-HCl buffer pH 3.5, glycine 10 mM (0.75 mg/mL), final conc. of peptide 20 mg/mL, mass ratio 26.67): dissolved; result (solubility) ([5]; glycine-HCl buffer pH 3.5, glycine 50 mM (3.75 mg/mL), final conc. of peptide 10 mg/mL, mass ratio 2.67): dissolved; result (solubility) ([5]; glycine-HCl buffer pH 3.5, glycine 50 mM (3.75 mg/mL), final conc. of peptide 25 mg/mL, mass ratio 6.67): white turbid; result (solubility) ([5]; glycine-HCl buffer pH 3.5, glycine 100 mM (7.5 mg/mL), final conc. of peptide 10 mg/mL, mass ratio 1.33): dissolved; result (solubility) ([5]; glycine-HCl buffer pH 3.5, glycine 100 mM (7.5 mg/mL), final conc. of peptide 25 mg/mL, mass ratio 3.33): white turbid; result (solubility) ([5]; glycine-HCl buffer pH 3.5, glycine 200 mM (15 mg/mL), final conc. of peptide 10 mg/mL, mass ratio 0.67): dissolved; result (solubility) ([5]; glycine-HCl buffer pH 3.5, glycine 300 mM (22.5 mg/mL), final conc. of peptide 10 mg/mL, mass ratio 0.44): dissolved; result (solubility) ([5]; glycine-HCl buffer pH 3.5, glycine 500 mM (37.5 mg/mL), final conc. of peptide 25 mg/mL, mass ratio 0.67): white turbid; solubility (summary of Table 2) ([5]; peptide concentration of 25 mg/mL, even when glycine concentration was 500 mM): could not be dissolved; stability / precipitation in the cocktail preparation ([4]; pH 4.9): stable without precipitation
